The test has as its target T1, human TIM-3 (T Cell Immunoglobulin and Mucin Domain-3) (human, UniProt Q8TDQ0 22-301).
T1 construct: The occupancy sentence names neither the receptor nor its form; also called HAVCR2
T1 sequence: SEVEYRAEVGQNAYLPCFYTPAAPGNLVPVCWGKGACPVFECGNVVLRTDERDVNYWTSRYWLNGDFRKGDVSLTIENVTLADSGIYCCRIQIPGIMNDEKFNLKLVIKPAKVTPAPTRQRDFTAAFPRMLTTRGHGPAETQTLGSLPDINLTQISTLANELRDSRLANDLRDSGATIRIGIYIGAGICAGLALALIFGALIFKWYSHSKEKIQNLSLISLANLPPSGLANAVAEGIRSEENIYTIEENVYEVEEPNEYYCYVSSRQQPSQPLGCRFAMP
In words: receptor occupancy in subjects of a corresponding Phase 1 study (method not described).

B1: cobolimab (antibody, human IgG4 S228P, kappa, V domains shown)
VH: EVQLLESGGGLVQPGGSLRLSCAAASGFTFSSYDMSWVRQAPGKGLDWVSTISGGGTYTYYQDSVKGRFTISRDNSKNTLYLQMNSLRAEDTAVYYCASMDYWGQGTTVTVSS
VL: DIQMTQSPSSLSASVGDRVTITCRASQSIRRYLNWYHQKPGKAPKLLIYGASTLQSGVPSRFSGSGSGTDFTLTISSLQPEDFAVYYCQQSHSAPLTFGGGTKVEIKR
notes: also called Anti-TIM3
Regarding B1, the binding result is given as “binds”.

The values are drawn from US20230131598A1 (GlaxoSmithKline, published 2023).
